# Measured values taken from PMC10973503.
# Biological target: α-synuclein (α-syn) 1-140 (UniProt P37840)
# Assay: WT-PFF-seeded ThT fibrillation kinetics, NS-TEM
# Settings: reference: unmodified WT monomer plus WT PFF; sites S87
substance,measurement,value
α-synuclein (α-syn) 1-140 (from UniProt P37840) pS87 monomer plus WT PFF,binding against the reference,weaker
